As usually defined, the Kd is the concentration at which binding is half-saturated. A high value points to weaker binding.

Experiment [1] has as its target Kae1 (M. jannaschii Kae1, residues 1-328 of MJ1130) (Methanocaldococcus jannaschii, UniProt Q58530). Briefly: ATP-binding assay.
Experiment [2] concerns the target T1, GST-Kae1 T88R/T92R (M. jannaschii) (Methanococcus jannaschii, UniProt Q58530 1-328, T88R | T92R).
T1 sequence (looked up): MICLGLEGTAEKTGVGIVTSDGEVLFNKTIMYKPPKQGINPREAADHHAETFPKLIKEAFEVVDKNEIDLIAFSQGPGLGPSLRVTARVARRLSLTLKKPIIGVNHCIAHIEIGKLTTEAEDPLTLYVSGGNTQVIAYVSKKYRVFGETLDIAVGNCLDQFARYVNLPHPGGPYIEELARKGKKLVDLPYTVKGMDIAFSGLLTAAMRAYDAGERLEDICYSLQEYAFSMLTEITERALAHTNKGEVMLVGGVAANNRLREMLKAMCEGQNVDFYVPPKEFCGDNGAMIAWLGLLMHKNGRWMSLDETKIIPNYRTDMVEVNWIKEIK
Briefly: pull-down.

Experiment [3] deals with T2, GST-Kae1 T88R (M. jannaschii) (Methanococcus jannaschii, UniProt Q58530 1-328, T88R).
T2 sequence (looked up): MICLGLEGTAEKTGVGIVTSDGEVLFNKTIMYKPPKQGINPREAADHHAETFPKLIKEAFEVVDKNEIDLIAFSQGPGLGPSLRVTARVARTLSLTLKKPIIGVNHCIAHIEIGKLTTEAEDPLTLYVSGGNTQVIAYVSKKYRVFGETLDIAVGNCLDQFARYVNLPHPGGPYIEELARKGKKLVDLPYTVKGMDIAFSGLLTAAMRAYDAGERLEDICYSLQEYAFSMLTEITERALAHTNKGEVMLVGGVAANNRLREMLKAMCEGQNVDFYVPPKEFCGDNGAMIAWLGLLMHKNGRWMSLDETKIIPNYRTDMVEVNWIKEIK
Kind of experiment: pull-down.

For experiment [4], the target named is T3, GST-Kae1 (residues 1-328 of Methanococcus jannaschii MJ1130) (Methanococcus jannaschii, UniProt Q58530 1-328).
T3 sequence (looked up): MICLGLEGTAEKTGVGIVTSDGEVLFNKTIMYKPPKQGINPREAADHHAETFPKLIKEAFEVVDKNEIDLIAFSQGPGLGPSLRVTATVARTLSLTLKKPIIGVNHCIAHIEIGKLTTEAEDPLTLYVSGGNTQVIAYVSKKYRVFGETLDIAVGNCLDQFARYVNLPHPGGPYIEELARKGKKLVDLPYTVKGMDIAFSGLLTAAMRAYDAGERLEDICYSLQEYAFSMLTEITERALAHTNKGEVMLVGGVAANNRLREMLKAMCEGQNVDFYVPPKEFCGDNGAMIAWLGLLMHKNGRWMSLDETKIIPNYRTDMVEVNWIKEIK
Kind of experiment: pull-down.

Experiment [5] has as its target T4, GST-Kae1 T88R/R91E (M. jannaschii) (Methanococcus jannaschii, UniProt Q58530 1-328, T88R | R91E).
T4 sequence (looked up): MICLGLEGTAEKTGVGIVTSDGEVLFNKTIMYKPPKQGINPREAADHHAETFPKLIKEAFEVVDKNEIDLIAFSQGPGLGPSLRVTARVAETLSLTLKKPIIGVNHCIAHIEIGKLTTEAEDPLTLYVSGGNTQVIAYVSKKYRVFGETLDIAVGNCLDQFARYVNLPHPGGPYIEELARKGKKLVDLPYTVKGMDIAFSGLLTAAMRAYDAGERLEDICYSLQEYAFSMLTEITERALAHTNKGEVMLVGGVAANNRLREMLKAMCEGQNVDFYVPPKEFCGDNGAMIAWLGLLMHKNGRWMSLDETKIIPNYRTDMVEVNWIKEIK
Briefly: pull-down.

In turn, `Nc1ncnc2c1ncn2[C@@H]1O[C@H](COP(=O)(O)OP(=O)(O)OP(=O)(O)O)[C@@H](O)[C@H]1O` [ATP] displayed a Kd in experiment [1] of 27 µM.

B1: Bud32 (residues 328-535 of Methanococcus jannaschii MJ1130), untagged (domain or fragment, UniProt Q58530 328-535, looked up)
chain: KGKKRKIPEHLIGKGAEADIKRDSYLDFDVIIKERVKKGYRDERLDENIRKSRTAREARYLALVKDFGIPAPYIFDVDLDNKRIMMSYINGKLAKDVIEDNLDIAYKIGEIVGKLHKNDVIHNDLTTSNFIFDKDLYIIDFGLGKISNLDEDKAVDLIVFKKAVLSTHHEKFDEIWERFLEGYKSVYDRWEIILELMKDVERRARYVE
Regarding B1, the binding result in experiment [2], in experiment [3], in experiment [4] and in experiment [5] was “binds” each time.

Source of the values: paper PMC3098719 (Molecular cell, 2008).
